Target: mouse Notch1 on CD4+ T cells (mouse) (UniProt Q01705)
Test: cell-based or functional assay

Chain of UniProt Q01705 (Q01705 19-2531): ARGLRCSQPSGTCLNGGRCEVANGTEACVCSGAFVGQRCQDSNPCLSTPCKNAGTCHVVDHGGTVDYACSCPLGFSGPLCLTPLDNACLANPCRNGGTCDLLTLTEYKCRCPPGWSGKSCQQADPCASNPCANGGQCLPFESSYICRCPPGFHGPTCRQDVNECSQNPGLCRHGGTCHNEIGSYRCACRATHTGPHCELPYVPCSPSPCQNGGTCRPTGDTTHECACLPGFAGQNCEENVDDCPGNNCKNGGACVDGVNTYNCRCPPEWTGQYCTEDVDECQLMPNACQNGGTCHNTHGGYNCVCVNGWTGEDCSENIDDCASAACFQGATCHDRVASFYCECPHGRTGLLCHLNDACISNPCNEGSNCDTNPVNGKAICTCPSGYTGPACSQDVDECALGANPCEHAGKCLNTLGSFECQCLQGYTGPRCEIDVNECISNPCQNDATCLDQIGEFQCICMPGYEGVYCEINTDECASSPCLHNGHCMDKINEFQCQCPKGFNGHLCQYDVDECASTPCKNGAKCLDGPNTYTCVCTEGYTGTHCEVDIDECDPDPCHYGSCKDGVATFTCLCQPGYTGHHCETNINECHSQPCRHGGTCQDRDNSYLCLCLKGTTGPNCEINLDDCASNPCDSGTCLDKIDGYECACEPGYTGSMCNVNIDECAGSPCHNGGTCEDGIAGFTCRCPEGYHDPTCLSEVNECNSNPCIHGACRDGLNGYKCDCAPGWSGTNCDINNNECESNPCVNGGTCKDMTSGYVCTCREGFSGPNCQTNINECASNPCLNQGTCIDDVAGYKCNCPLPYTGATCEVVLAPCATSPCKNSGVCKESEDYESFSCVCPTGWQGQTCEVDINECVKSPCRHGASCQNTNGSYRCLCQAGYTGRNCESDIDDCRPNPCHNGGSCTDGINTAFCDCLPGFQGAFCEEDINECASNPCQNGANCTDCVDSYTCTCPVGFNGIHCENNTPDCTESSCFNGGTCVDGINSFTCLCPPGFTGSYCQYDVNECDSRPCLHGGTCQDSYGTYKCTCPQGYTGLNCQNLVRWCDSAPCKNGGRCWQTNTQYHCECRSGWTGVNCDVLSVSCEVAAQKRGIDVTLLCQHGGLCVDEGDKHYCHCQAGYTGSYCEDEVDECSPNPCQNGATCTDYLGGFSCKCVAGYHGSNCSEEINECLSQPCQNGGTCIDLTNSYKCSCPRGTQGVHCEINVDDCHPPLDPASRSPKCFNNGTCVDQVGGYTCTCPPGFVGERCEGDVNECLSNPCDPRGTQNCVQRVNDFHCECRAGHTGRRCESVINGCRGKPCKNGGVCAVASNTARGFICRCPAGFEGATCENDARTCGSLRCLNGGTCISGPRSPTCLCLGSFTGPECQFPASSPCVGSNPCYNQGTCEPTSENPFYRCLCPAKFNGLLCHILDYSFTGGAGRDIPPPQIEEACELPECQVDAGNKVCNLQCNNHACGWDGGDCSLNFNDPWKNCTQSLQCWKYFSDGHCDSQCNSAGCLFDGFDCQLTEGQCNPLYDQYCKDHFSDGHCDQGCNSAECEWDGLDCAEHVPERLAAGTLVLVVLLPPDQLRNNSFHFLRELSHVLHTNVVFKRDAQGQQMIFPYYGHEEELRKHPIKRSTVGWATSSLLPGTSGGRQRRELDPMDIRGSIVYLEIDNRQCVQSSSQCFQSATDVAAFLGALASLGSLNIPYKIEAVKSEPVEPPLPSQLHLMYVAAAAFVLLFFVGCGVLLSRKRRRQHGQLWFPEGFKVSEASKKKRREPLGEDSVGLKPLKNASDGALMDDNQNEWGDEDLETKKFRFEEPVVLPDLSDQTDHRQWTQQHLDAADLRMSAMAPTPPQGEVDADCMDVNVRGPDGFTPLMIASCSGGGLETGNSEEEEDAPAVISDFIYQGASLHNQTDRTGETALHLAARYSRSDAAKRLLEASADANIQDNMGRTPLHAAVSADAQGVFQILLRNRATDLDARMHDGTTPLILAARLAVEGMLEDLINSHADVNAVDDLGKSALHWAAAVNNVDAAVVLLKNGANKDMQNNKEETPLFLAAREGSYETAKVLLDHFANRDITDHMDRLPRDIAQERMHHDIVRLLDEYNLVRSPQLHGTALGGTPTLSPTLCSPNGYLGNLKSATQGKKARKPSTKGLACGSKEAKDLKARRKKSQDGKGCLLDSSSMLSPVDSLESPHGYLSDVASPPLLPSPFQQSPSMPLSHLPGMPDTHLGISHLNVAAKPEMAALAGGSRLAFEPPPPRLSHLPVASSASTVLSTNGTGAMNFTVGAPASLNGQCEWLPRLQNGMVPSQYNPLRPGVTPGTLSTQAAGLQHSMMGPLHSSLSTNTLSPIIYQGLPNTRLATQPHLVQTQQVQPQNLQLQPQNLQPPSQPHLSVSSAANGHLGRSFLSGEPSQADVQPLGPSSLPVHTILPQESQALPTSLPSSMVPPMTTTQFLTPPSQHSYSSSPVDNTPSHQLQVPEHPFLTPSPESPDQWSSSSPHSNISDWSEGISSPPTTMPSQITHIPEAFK

percentage of DLL4hiDC-activated CD4+ T cells with high cleaved intracellular Notch (ICN): 61%
Substance: mouse delta-like ligand 4 (DLL4) on the surface of DLL4hiDCs (from UniProt Q9JI71 27-686)

Reference: patent US20190134169A1
